According to patent publication US20190359693A1:

How the values were obtained:
[1] = biological target: hemagglutinin (HA) of influenza virus B/Florida/04/06 (Yamagata) (influenza B virus); assay: cell-based or functional assay
[2] = biological target: hemagglutinin (HA) of influenza virus B/Lee/40 (Old) (influenza B virus) (UniProt P03460); assay: cell-based or functional assay
[3] = biological target: hemagglutinin (HA) of influenza virus B/Brisbane/60/08 (Victoria) (influenza B virus); assay: cell-based or functional assay
[4] = biological target: recombinant HA of B/Florida/04/06 (Yamagata) (influenza B virus); assay: biolayer interferometry (Octet), steady-state fit, geometric mean, pH 7.4
[5] = biological target: recombinant HA of B/Brisbane/60/08 (Victoria) (influenza B virus); assay: as above
[6] = biological target: HA of B/Brisbane/60/2008 (Victoria) (influenza B virus); assay: cell-based or functional assay
[7] = biological target: HA of B/Florida/04/2006 (Yamagata) (influenza B virus); assay: cell-based or functional assay
[8] = biological target: HA of B/Florida/04/2006 (Yamagata) (influenza B virus); assay: AlphaLISA competition vs CR8033
[9] = biological target: HA of B/Brisbane/60/2008 (Victoria) (influenza B virus); assay: AlphaLISA competition vs CR8071
[10] = biological target: HA of B/Florida/04/2006 (Yamagata) (influenza B virus); assay: AlphaLISA competition vs CR8071
[11] = biological target: HA of B/Brisbane/60/2008 (Victoria) (influenza B virus); assay: AlphaLISA competition vs CR9114
[12] = biological target: HA of B/Florida/04/2006 (Yamagata) (influenza B virus); assay: AlphaLISA competition vs CR9114
[13] = biological target: HA of H7N3 A/NIBRG/60 (A/mallard/NL/12/00) (influenza A virus); assay: cell-based or functional assay
[14] = biological target: HA of H1N1 A/New Caledonia/20/1999 (influenza A virus); assay: cell-based or functional assay
[15] = biological target: hemagglutinin (HA) of influenza A/chicken/Germany/n/49 (H10N7) (influenza A virus A/chicken/Germany/n/49 (H10N7)); assay: cell-based or functional assay
[16] = biological target: hemagglutinin (HA) of influenza A/Brisbane/10/07 (H3N2) (influenza A virus A/Brisbane/10/07 (H3N2)); assay: cell-based or functional assay
[17] = biological target: HA of H3N2 A/Brisbane/10/2007 (influenza A virus); assay: cell-based or functional assay
[18] = biological target: HA of H5N1 A/Vietnam/1194/04 (influenza A virus); assay: cell-based or functional assay
[19] = biological target: HA of H1N1 A/Brisbane/59/07 (influenza A virus); assay: cell-based or functional assay
[20] = biological target: hemagglutinin (HA) of influenza A/waterfowl/Hong Kong/MPA892/06 (H4) (influenza A virus A/waterfowl/Hong Kong/MPA892/06 (H4)); assay: cell-based or functional assay
[21] = biological target: hemagglutinin (HA) of influenza A/New York/107/03 (PR8) (influenza A virus A/New York/107/03 (PR8)); assay: cell-based or functional assay
[22] = biological target: HA of H3N2 A/Brisbane/10/2007 (influenza A virus); assay: AlphaLISA competition vs CR8020
[23] = biological target: HA of H3N2 A/Brisbane/10/2007 (influenza A virus); assay: AlphaLISA competition vs CR9114
[24] = biological target: HA of H7N3 A/NIBRG/60 (A/mallard/NL/12/00) (influenza A virus); assay: BLI steady state
[25] = biological target: HA of H3N2 A/Brisbane/10/2007 (influenza A virus); assay: BLI steady state
[26] = biological target: HA of H3N2 A/Brisbane/10/2007 (influenza A virus); assay: AlphaLISA competition vs CR8057
[27] = biological target: hemagglutinin (HA) of influenza virus H6N1 A/Taiwan/2/2013 (influenza A virus); assay: cell-based or functional assay
[28] = biological target: hemagglutinin (HA) of influenza virus H5N1 A/Vietnam/1194/04 (influenza A virus); assay: cell-based or functional assay
[29] = biological target: hemagglutinin (HA) of influenza virus H1N1 A/Puerto Rico/8/34-MA (influenza A virus); assay: cell-based or functional assay
[30] = biological target: hemagglutinin (HA) of influenza virus H3N2 A/HK/1/68-MA (influenza A virus); assay: cell-based or functional assay
[31] = biological target: hemagglutinin (HA) of influenza virus H7N3 A/NIBRG/60 (A/mallard/Netherlands/12/00) (influenza A virus); assay: cell-based or functional assay
[32] = biological target: hemagglutinin (HA) of influenza B/Malaysia/2506/04 (Victoria) (influenza B virus); assay: cell-based or functional assay
[33] = biological target: hemagglutinin (HA) of influenza B/Harbin/7/94 (Yamagata) (influenza B virus); assay: cell-based or functional assay
[34] = biological target: hemagglutinin (HA) of influenza B/Massachusetts/02/12 (Yamagata) (influenza B virus); assay: cell-based or functional assay
[35] = biological target: hemagglutinin (HA) of influenza B/Florida/04/06 (Yamagata) (influenza B virus); assay: cell-based or functional assay
[36] = biological target: hemagglutinin (HA) of influenza B/Lee/40 (Old) (influenza B virus) (UniProt P03460); assay: cell-based or functional assay
[37] = biological target: HA of H3N2 A/Brisbane/10/2007 (influenza A virus); assay: AlphaLISA competition vs 39.29
[38] = biological target: HA of H3N2 A/Brisbane/10/2007 (influenza A virus); assay: AlphaLISA competition vs SD1036
[39] = biological target: HA of H3N2 A/Brisbane/10/2007 (influenza A virus); assay: AlphaLISA competition vs SD1038
[40] = biological target: HA of H1N1 A/Puerto Rico/8/34-MA (influenza A virus); assay: cell-based or functional assay
[41] = biological target: HA of H5N1 A/PR8 H5N1 HK97 (influenza A virus); assay: cell-based or functional assay
[42] = biological target: HA of H1N1 A/New Caledonia/20/1999 (influenza A virus); assay: BLI steady state

B1: MD1221 (VHH)
chain: EVQLVESGGGLVQPGGSLRLSCAATGFTLENKAIGWFRQTPGSEREGVLCISKSGSWTYYTDSMRGRFTISRDNAENTVYLQMDSLKPEDTAVYYCATTTAGGGLCWDGTTFSRLASSWGQGTQVTVSSAAAGGGGSGGGGSGGGGSGGGGSGGGGSGGGGSGGGGSEVQLVESGGGLVQPGGSLRLSCAATGFTLENKAIGWFRQTPGSEREGVLCISKSGSWTYYTDSMRGRFTISRDNAENTVYLQMDSLKPEDTAVYYCATTTAGGGLCWDGTTFSRLASSWGQGTQVTVSS
neutralization titer [1]: 76.4 nM
neutralization titer [2]: 32.5 nM
neutralization titer [3]: 23.4 nM
Kd [4]: 1.9 nM
Kd [5]: 1.7 nM

B2: SD1086 (VHH)
VHH: EVQLVESGGGLVQAGGSLRLSCTASGSISSIDYMRWYRQYPGKHRELVATITSGGAADSRDSVKGRFTVSRGNAANTMYLQMNNLKPEDTAVYYCNAYGLEIGAHWGRGTQVTVSS
VNA titer [6]: 827 nM
VNA titer [7]: > 1000 nM
pIC50 [8]: < 7
pIC50 [9]: < 7
pIC50 [10]: < 7
pIC50 [11]: 8.6
pIC50 [12]: 8

B3: SD1046 (VHH)
VHH: EVQLVESGGGLVQAGDSLRISCAASGRTLSIYSMGWFRQAPGKEREFVATIGWNSGRTFYPDSLKGRFTISRDNARNTLYLQMNNLRPEDTAVYYCAAAKGPLRLSSQADYWGQGTQVTVSS
VNA titer [13]: 26.4 nM
VNA titer [14]: > 1000 nM
VNA IC50 [15]: 13 nM
VNA IC50 [16]: 5 nM
VNA titer [6]: > 1000 nM
VNA titer [17]: 6.6 nM
VNA titer [18]: > 1000 nM
VNA titer [19]: > 1000 nM
VNA titer [7]: > 1000 nM
VNA IC50 [20]: 3 nM
VNA IC50 [21]: 34 nM
pIC50 [22]: 9.6
pIC50 [23]: 9.9
Kd [24]: 3 nM
Kd [25]: 2 nM
pIC50 [26]: < 7

B4: MD2401 (protein)
chain: EVQLVESGGGLVQPGGSLRLSCAVSISIFDIYAMDWYRQAPGKQRDLVATSFRDGSTNYADSVKGRFTISRDNAKNTLYLQMNSLKPEDTAVYLCHVSLYRDPLGVAGGMGVYWGKGALVTVSSAAAGGGGSGGGGSGGGGSGGGGSGGGGSGGGGSGGGGSEVQLVESGGGLVQAGGSLKLSCAASGRTYAMGWFRQAPGKEREFVAHINALGTRTYYSDSVKGRFTISRDNAKNTEYLEMNNLKPEDTAVYYCTAQGQWRAAPVAVAAEYEFWGQGTQVTVSSLINLEGGGGSGGGGSGGGGSGGGGSGGGGSGGGGSGGGGSPAGEVQLVESGGGLVQPGGSLRLSCAATGFTLENKAIGWFRQTPGSEREGVLCISKSGSWTYYTDSMRGRFTISRDNAENTVYLQMDSLKPEDTAVYYCATTTAGGGLCWDGTTFSRLASSWGQGTQVTVSSAAAGGGGSGGGGSGGGGSGGGGSGGGGSGGGGSGGGGSEVQLVESGGGLVQPGGSLRLSCAATGFTLENKAIGWFRQTPGSEREGVLCISKSGSWTYYTDSMRGRFTISRDNAENTVYLQMDSLKPEDTAVYYCATTTAGGGLCWDGTTFSRLASSWGQGTQVTVSS
average neutralization titer [27]: 36.3 nM
average neutralization titer [28]: 27.7 nM
average neutralization titer [29]: 14.7 nM
average neutralization titer [1]: 277 nM
average neutralization titer [30]: 27.7 nM
average neutralization titer [2]: 165 nM
average neutralization titer [31]: 27.7 nM

B5: SD1087 (VHH)
VHH: EVQLVESGGGLVQPGGSLRLSCVISGLSLDTYAVGWFRQAPGKEREGITCISSGHGMTYYADSVKGRFTVSTDNAKNTVYLQMNGLQPEDTARYYCATESRYYCSDNWPAPQRYIYWGQGTQVTVSS
VNA IC50 [32]: 59 nM
VNA IC50 [33]: > 1000 nM
VNA IC50 [34]: 1000 nM
VNA IC50 [35]: > 1000 nM
VNA titer [6]: 10.2 nM
hemagglutination inhibition titer [6]: > 50 µg/mL
VNA titer [7]: > 1000 nM
hemagglutination inhibition titer [7]: > 50 µg/mL
VNA IC50 [36]: 22 nM
pIC50 [8]: < 7
pIC50 [9]: < 7
pIC50 [11]: 7.5
pIC50 [23]: < 7
pIC50 [12]: 8.8
pIC50 [37]: < 7
pIC50 [38]: < 7
pIC50 [39]: < 7

B6: SD1045 (VHH)
VHH: EVQLVESGGGLVQAGGSLRLSCAASGSSFSINVMGWYRQAPGKQREMVATITYGGSTNYVDSVKGRFTISRDNAKNTVYLQMNSLKPEDTAVYYCNSRLAQINYWGQGTQVTVSS
VNA titer [40]: 206 nM
VNA titer [13]: > 1000 nM
VNA titer [14]: 166 nM
VNA titer [41]: 117 nM
VNA titer [6]: > 1000 nM
VNA titer [17]: 641 nM
VNA titer [18]: 63.5 nM
VNA titer [7]: > 1000 nM
Kd [42]: 5 nM
